Laboratory results taken from CN117396506A (NOVARTIS AG, dated 2024).

What was measured:
[1] = target: T1, 重组人IL-18 (human, UniProt Q14116 37-193); assay: SET, single-target binding assay
T1 construct: In the LPS/IL-12 assays the IL-18 is the native cytokine made by the blood cells; also called huIL-18; human IL-18

[2] = target: T2, 重组人IL-1β (human, UniProt P01584 117-269); assay: solution equilibrium titration (SET), single-target binding assay, MSD ECL read-out; mean KD
T2 construct: In the LPS/IL-12 assays the IL-1β is the native cytokine made by the blood cells; also called huIL-1β; IL-1b

B1: mAb1 (antibody, human IgG1, lambda, L234A L235A, V domains shown)
VH: EVQLVQSGAEVKKPGSSVKVSCKASGGTFKSYAISWVRQAPGQGLEWMGNIIPMTGQTYYAQKFQGRVTITADESTSTAYMELSSLRSEDTAVYYCARAAYHPLVFDNWGQGTLVTVSS
VL: DIVLTQPPSVSGAPGQRVTISCSGSSSNIGNHYVNWYQQLPGTAPKLLIYRNNHRPSGVPDRFSGSKSGTSASLAITGLQSEDEADYYCQSWDYSGFSTVFGGGTKLTVLG
notes: Human anti-IL-18 antibody, bivalent mAb; also called IL-18抗体mAb1
[1]
  binding result: binds

B2: mAb2 (antibody, human IgG1, kappa, V domains shown)
VH: QVQLVESGGGVVQPGRSLRLSCAASGFTFSVYGMNWVRQAPGKGLEWVAIIWYDGDNQYYADSVKGRFTISRDNSKNTLYLQMNGLRAEDTAVYYCARDLRTGPFDYWGQGTLVTVSS
VL: EIVLTQSPDFQSVTPKEKVTITCRASQSIGSSLHWYQQKPDQSPKLLIKYASQSFSGVPSRFSGSGSGTDFTLTINSLEAEDAAAYYCHQSSSLPFTFGPGTKVDIKR
notes: Human anti-IL-1β antibody, bivalent mAb; also called IL-1β抗体mAb2
[2]
  Kd: 0.6 pM
